Measured values taken from publication PMC8904830, “Differential recognition of canonical NF-κB dimers by Importin α3” (Nature Communications, 2022).
One block for each molecule: values may come before it.

B1: NF-κB p50 (residues 1-366) (domain or fragment, human, UniProt P19838 1-366, looked up)
chain: MAEDDPYLGRPEQMFHLDPSLTHTIFNPEVFQPQMALPTDGPYLQILEQPKQRGFRFRYVCEGPSHGGLPGASSEKNKKSYPQVKICNYVGPAKVIVQLVTNGKNIHLHAHSLVGKHCEDGICTVTAGPKDMVVGFANLGILHVTKKKVFETLEARMTEACIRGYNPGLLVHPDLAYLQAEGGGDRQLGDREKELIRQAALQQTKEMDLSVVRLMFTAFLPDSTGSFTRRLEPVVSDAIYDSKAPNASNLKIVRMDRTAGCVTGGEEIYLLCDKVQKDDIQIRFYEEEENGGVWEGFGDFSPTDVHRQFAIVFKTPKYKDINITKPASVFVQLRRKSDLETSEPKPFLYYPEIKDKEEVQRKRQKL
notes: NF-κB p50, human, residues 1-366 (Rel homology region with the C-terminal NLS); also called p50 RHR; source: E. coli BL21 DE3, purified (Glutathione Resin, PreScission cleavage, Superdex 200)
B2: NF-κB p65 (residues 1-306) (domain or fragment, human, UniProt Q04206 1-306, looked up)
chain: MDELFPLIFPAEPAQASGPYVEIIEQPKQRGMRFRYKCEGRSAGSIPGERSTDTTKTHPTIKINGYTGPGTVRISLVTKDPPHRPHPHELVGKDCRDGFYEAELCPDRCIHSFQNLGIQCVKKRDLEQAISQRIQTNNNPFQVPIEEQRGDYDLNAVRLCFQVTVRDPSGRPLRLPPVLSHPIFDNRAPNTAELKICRVNRNSGSCLGGDEIFLLCDKVQKEDIEVYFTGPGWEARGSFSQADVHRQVAIVFRTPPYADPSLQAPVRVSMQLRRPSDRELSEPMEFQYLPDTDDRHRIEEKRKRTY
notes: NF-κB p65 (RelA), human, residues 1-306 (Rel homology region with the C-terminal NLS), untagged; also called RelA; p65 RHR; source: E. coli BL21 DE3, purified (polyethyleneimine and ammonium sulfate precipitation, HiTrap SP, Superdex 200)
B3: ΔNLS-p50 (residues 41-351) (domain or fragment, human, UniProt P19838 41-351, looked up)
chain: GPYLQILEQPKQRGFRFRYVCEGPSHGGLPGASSEKNKKSYPQVKICNYVGPAKVIVQLVTNGKNIHLHAHSLVGKHCEDGICTVTAGPKDMVVGFANLGILHVTKKKVFETLEARMTEACIRGYNPGLLVHPDLAYLQAEGGGDRQLGDREKELIRQAALQQTKEMDLSVVRLMFTAFLPDSTGSFTRRLEPVVSDAIYDSKAPNASNLKIVRMDRTAGCVTGGEEIYLLCDKVQKDDIQIRFYEEEENGGVWEGFGDFSPTDVHRQFAIVFKTPKYKDINITKPASVFVQLRRKSDLETSEPKPFLYYP
notes: NF-κB p50, human, residues 41-351, lacking the C-terminal NLS, untagged; also called p50-ΔNLS; source: E. coli BL21 DE3, purified (polyethyleneimine and ammonium sulfate precipitation, HiTrap SP, Superdex 200)
B4: ΔDBD-p50 (residues 243-366) (domain or fragment, human, UniProt P19838 243-366, looked up)
chain: KAPNASNLKIVRMDRTAGCVTGGEEIYLLCDKVQKDDIQIRFYEEEENGGVWEGFGDFSPTDVHRQFAIVFKTPKYKDINITKPASVFVQLRRKSDLETSEPKPFLYYPEIKDKEEVQRKRQKL
notes: also called p50 dimerization domain; source: E. coli BL21 DE3, purified (Glutathione Resin, PreScission cleavage, Superdex 200)
B5: IκBα (residues 67-287) (domain or fragment, UniProt P25963 67-287, looked up)
chain: KQQLTEDGDSFLHLAIIHEEKALTMEVIRQVKGDLAFLNFQNNLQQTPLHLAVITNQPEIAEALLGAGCDPELRDFRGNTPLHLACEQGCLASVGVLTQSCTTPHLHSILKATNYNGHTCLHLASIHGYLGIVELLVSLGADVNAQEPCNGRTALHLAVDLQNPDLVSLLLKCGADVNRVTYQGYSPYQLTWGRPSTRIQQQLGQLTLENLQMLPESEDEE
notes: IκBα, residues 67-287, untagged; source: recombinant, expressed and purified as previously described (pET-11a)
B6: ΔDBD-p65 (residues 191-316) (domain or fragment, human, UniProt Q04206 191-316, looked up)
chain: TAELKICRVNRNSGSCLGGDEIFLLCDKVQKEDIEVYFTGPGWEARGSFSQADVHRQVAIVFRTPPYADPSLQAPVRVSMQLRRPSDRELSEPMEFQYLPDTDDRHRIEEKRKRTYETFKSIMKKS
notes: also called p65 dimerization domain; source: E. coli BL21 DE3, purified (Glutathione Resin, PreScission cleavage, Superdex 200)
B7: ΔNLS-p65 (residues 1-290) (domain or fragment, human, UniProt Q04206 1-290, looked up)
chain: MDELFPLIFPAEPAQASGPYVEIIEQPKQRGMRFRYKCEGRSAGSIPGERSTDTTKTHPTIKINGYTGPGTVRISLVTKDPPHRPHPHELVGKDCRDGFYEAELCPDRCIHSFQNLGIQCVKKRDLEQAISQRIQTNNNPFQVPIEEQRGDYDLNAVRLCFQVTVRDPSGRPLRLPPVLSHPIFDNRAPNTAELKICRVNRNSGSCLGGDEIFLLCDKVQKEDIEVYFTGPGWEARGSFSQADVHRQVAIVFRTPPYADPSLQAPVRVSMQLRRPSDRELSEPMEFQYLP
notes: NF-κB p65 (RelA), human, residues 1-290 (stop codon at position D291), lacking the C-terminal NLS, untagged; source: E. coli BL21 DE3, purified (polyethyleneimine and ammonium sulfate precipitation, HiTrap SP, Superdex 200)

Experiments:
[1] = biological target: ΔDBD-p50/p65 heterodimer (human) (UniProt P19838); experiment: SEC; trimeric complex assembled from purified ΔIBB-importin α3 and ΔDBD-p50/p65; peak fraction analysed by SDS-PAGE and native agarose gel
[2] = biological target: T1, NF-κB p50/p65 heterodimer (human, UniProt P19838 1-366; Q04206 1-306); experiment: SEC-SAXS; pre-assembled NF-κB dimer:ΔIBB-importin α3 complexes at 4.5-6.6 mg/ml on Superdex 200 10/300 GL; 20 mM Tris-HCl pH 7.0-7.5, 0.15-0.175 M NaCl, glycerol, 0.5 mM TCEP, 4 °C; mass from volume of correlation
T1 construct: NF-κB p50, human, residues 1-366; NF-κB p65 (RelA), human, residues 1-306, untagged; also called wild-type NF-κB; source: subunits from E. coli BL21 DE3, purified; assembled by incubating p50:p65 at 1:1.5 molar ratio; copies: 1 + 1

[3] = biological target: NF-κB p50/p50 homodimer (human) (UniProt P19838); experiment: as above
[4] = biological target: NF-κB p65/p65 homodimer (human) (UniProt Q04206); experiment: as above
[5] = biological target: T1, NF-κB p50/p65 heterodimer; experiment: ELISA; NF-κB hetero/homodimers (200 ng) coated on MaxiSorp plates; His-importin α 1000 to 0 nM in PBST, room temperature 1 h; anti-6xHis-HRP; one-site specific binding fit
[6] = biological target: NF-κB p50/p50 homodimer (human) (UniProt P19838); experiment: as above
[7] = biological target: NF-κB p65/p65 homodimer (human) (UniProt Q04206); experiment: as above
[8] = biological target: p50/ΔNLS-p65 heterodimer (human) (UniProt P19838); experiment: as above
[9] = biological target: ΔIBB-importin α1 (tag not told for this experiment) (human) (UniProt P52292); experiment: native gel or EMSA; increasing molar excess of pre-assembled p50/p65 added to a fixed 10 μg (~108 pmoles) of ΔIBB-importin α1 or α3; 1.5% agarose gel, 4 °C, 2 h at 50 V, Coomassie
[10] = biological target: ΔIBB-importin α3 (tag not told for these experiments) (human) (UniProt O00629); experiment: as above
[11] = biological target: the molecule itself; experiment: SEC; homodimeric NF-κB complexes concentrated and injected on Superdex 200 16/60 in 20 mM Tris-HCl pH 7.5, 150 mM NaCl, 5 mM β-mercaptoethanol, 2% glycerol
[12] = biological target: B1; experiment: assembly of heterodimers by co-incubation; purified p50 and p65 constructs incubated at 1:1.5 p50:p65 molar ratio, 25 °C 30 min, 37 °C 1 h, centrifuged at 12,000 x g; conditions: both partners purified
[13] = biological target: B3; experiment: as above; conditions: both partners purified
[14] = biological target: B2; experiment: as above; conditions: both partners purified
[15] = biological target: T1, NF-κB p50/p65 heterodimer; experiment: native gel or EMSA; purified IκBα titrated against ~130 pmoles of pre-formed p50/p65 (Fig. 4a lanes 5-10); 1 h at 4 °C; 1.5% agarose gel; conditions: both partners purified

Chain of ΔIBB-importin α3 (tag not told for these experiments) (human) (O00629 68-487, stated change not applied): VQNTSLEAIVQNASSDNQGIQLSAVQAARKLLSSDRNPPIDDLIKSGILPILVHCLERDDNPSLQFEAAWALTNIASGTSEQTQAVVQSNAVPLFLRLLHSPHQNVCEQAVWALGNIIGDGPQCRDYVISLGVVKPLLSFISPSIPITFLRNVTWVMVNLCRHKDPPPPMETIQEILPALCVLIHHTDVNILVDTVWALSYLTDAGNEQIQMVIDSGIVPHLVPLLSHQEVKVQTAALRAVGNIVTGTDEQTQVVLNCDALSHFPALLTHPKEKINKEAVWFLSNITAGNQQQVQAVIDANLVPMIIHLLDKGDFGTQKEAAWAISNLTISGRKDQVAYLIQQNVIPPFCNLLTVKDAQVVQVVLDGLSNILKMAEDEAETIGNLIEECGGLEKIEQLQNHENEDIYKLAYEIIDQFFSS

- stoichiometry N [1]: 1
- stoichiometry N [2]: 1
- stoichiometry N [3]: 2
- stoichiometry N [4]: 1
Molecule: ΔIBB-importin α3 (tag not told for these experiments) (from UniProt O00629 68-487) (domain or fragment)

- Kd [5]: 45.8 nM
- Kd [6]: 15.4 nM
- Kd [7]: 35.2 nM
- Kd [8]: 59.6 nM
Molecule: His-ΔIBB-importin α3 (from UniProt O00629 68-487) (domain or fragment)

- stoichiometry N [9]: 1
- stoichiometry N [10]: 1
Molecule: NF-κB p50/p65 heterodimer (from UniProt P19838 1-366; Q04206 1-306) (complex)

Molecule: B1
- binding result [11]: binds

Molecule: B2
- binding result [11]: binds
- binding result [12]: binds
- binding result [13]: binds

Molecule: B3
- binding result [11]: binds

Molecule: B4
- binding result [11]: binds
- binding result [14]: binds

Molecule: B5
- stoichiometry N [15]: 1

Molecule: B6
- binding result [11]: binds

Molecule: B7
- binding result [11]: binds
- binding result [12]: binds
- binding result [13]: binds
